Experimental data as given in patent publication US6413943.
pIC50: −log10 of the molar value.

Legend:
[1] = target: CDC2/cyclin B (UniProt P06493); assay: in vitro kinase assay; mixture of p27 and p16
[2] = target: CDK2/cyclin E (UniProt P24941); assay: in vitro kinase assay; mixture of p27 and p16
[3] = target: CDK4/cyclin D1 complex (UniProt P11802); assay: cell-based or functional assay
[4] = target: CDK2/cyclin E complex (UniProt P24941); assay: cell-based or functional assay
[5] = target: CDC2/cyclin B complex (UniProt P06493); assay: cell-based or functional assay
Chain of CDC2/cyclin B complex (P06493 whole entry, one chain of several): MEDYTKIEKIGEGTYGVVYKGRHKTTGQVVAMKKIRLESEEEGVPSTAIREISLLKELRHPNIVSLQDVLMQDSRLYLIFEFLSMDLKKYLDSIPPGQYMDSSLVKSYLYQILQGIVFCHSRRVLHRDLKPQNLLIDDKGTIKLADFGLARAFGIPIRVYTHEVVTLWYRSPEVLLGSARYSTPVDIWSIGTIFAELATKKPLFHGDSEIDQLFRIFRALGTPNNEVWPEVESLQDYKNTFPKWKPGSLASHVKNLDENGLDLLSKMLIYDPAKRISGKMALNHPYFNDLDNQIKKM

[6] = target: CDK2/cyclin A complex (UniProt P24941); assay: cell-based or functional assay

Chain of CDK4/cyclin D1 complex (P11802 whole entry, chain 1 of 2): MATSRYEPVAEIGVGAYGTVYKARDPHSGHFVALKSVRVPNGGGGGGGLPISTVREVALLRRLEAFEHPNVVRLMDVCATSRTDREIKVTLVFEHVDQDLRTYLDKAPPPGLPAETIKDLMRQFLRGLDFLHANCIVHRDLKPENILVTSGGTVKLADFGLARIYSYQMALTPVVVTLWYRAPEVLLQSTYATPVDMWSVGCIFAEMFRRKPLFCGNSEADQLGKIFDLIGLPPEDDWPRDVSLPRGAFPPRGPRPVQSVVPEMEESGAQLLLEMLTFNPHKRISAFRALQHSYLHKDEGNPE
Chain of CDK4/cyclin D1 complex (P24385 whole entry, chain 2 of 2, further chain): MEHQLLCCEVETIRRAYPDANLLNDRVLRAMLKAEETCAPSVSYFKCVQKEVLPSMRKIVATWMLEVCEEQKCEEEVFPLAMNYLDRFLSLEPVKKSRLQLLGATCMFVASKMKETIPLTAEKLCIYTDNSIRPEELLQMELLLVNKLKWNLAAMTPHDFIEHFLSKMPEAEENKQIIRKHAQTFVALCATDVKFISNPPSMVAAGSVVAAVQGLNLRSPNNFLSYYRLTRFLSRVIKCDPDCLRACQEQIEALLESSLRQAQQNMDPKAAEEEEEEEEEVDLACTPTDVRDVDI
Chain of CDC2/cyclin B (P06493 whole entry): as the sequence (P06493 whole entry, one chain of several) above

Question: What does the source list for p27 + p16?
Answer: pIC50 [1]: 7.92; pIC50 [2]: 8.77

Question: Which IC50, in vitro kinase activity (GST-Rb phosphorylation) [3] does the source give for human p27 (from UniProt P46527 1-198) here?
Answer: 63 nM

Question: How did the IC50, in vitro kinase activity (GST-Rb phosphorylation) [4] turn out when p27-p16 fusion protein was run?
Answer: 30 nM

Question: What about the IC50, in vitro kinase activity (histone H1 phosphorylation) [5] of the same substance?
Answer: 15 nM

Question: What about the IC50, in vitro kinase activity [6] of the same substance?
Answer: 25 nM

Question: What about the IC50, in vitro kinase activity (GST-Rb phosphorylation) [3] of the same substance?
Answer: 25 nM
